The supplement of paper PMC12042874
± gives the uncertainty stated by the source.

Assay: amyloid nucleation score (Sup35N fusion, yeast selection) (log enrichment); library NNK2; higher = more nucleation; inactive = no reads after selection
Summary of the method: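 Nucleation score: DiMSum log enrichment of output over input reads, centred on the mode score of non-aggregating sequences. Only sequences with at least 100 input reads were kept. Reads came from Illumina sequencing of plasmid inserts before and after 7 days of growth at 30°C without adenine and uracil, in psi-negative yeast expressing Sup35N fused to peptides of 20 random codons after 24 hours of induction with 100 μM copper sulfate.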

Substance | amyloid nucleation score
DRYSTCSNRKSTRYLFMTFA | 0.151 ± 0.36
YFSYVMSVAATAMLGLVVVR | 0.189 ± 0.3
NVLCKRVMMV | 0.384 ± 0.66
TFYSLGLNISMFSLPGLAGY | 0.683 ± 0.35
SDNSM | -0.235 ± 0.32
VSSAHYV | -0.657 ± 0.76
GGCSTRWHKDVYDNGDNGDF | -0.545 ± 0.63
TMLCYYINFRLIVYRSWYKQ | -0.788 ± 0.34
SCNNLGDLWLSIILVKSET | 0.044 ± 1.1
CFSHYHDSFLPGWYYSGNYV | -0.788 ± 0.4
KNFQEHYVFLRARRLKLLSY | -0.095 ± 0.8
VVSILRLDSVGRVVIEAWVR | 0.223 ± 0.77
CDPVSNFCIMLMCFIREYGR | 1.99 ± 0.087
RDRRASYLVVASPTAGLHMV | 3.34 ± 0.078
SSYMSRALSCGHSFGKVGAN | 0.697 ± 0.81
IPIWFERIALSDFKLVFSHN | inactive
YESLYVKLVAEPQIRCMYYS | -0.152 ± 0.34
CFFTSYTRA | -0.114 ± 0.55
TRSRKWHRGS | 1.14 ± 0.32
KYLRVDMVNMNAYKGHWEGS | 0.526 ± 0.66
SCSVTSAFRWTRCGLLRGIW | -0.048 ± 0.3
AKVSSMVQECNLYLELETRL | inactive
EYMPP | 0.924 ± 0.16
KRGMRRKGDFTERKVETLVG | 2.39 ± 0.11

Substance | amyloid nucleation score
GFMFGMLTISLRSVMFVARV | -0.227 ± 0.32
DYLVRGQEY | 0.357 ± 0.43
VQLDSSFLIM | 1.02 ± 0.48
TWQVMRRYLENPDGSL | -1.03 ± 0.62
CFISQILEFCCSFIFSRDFF | 0.286 ± 0.27
CFANRNRFFMSLSEHHTFDG | -0.798 ± 1.1
LANYYTDSVRPSCGY | -0.022 ± 0.55
GFTENKIRDVFGVFHFIVGD | 0.479 ± 0.8
HDTLIMFTYKVVVLLASERF | -0.549 ± 0.63
GASRVAPVCQTTKSLKCMAK | -1.17 ± 1.1
IRGCLNMFWLKKWDLPRLYF | -0.327 ± 0.63
FWHLYPQCQDWSDLQN | inactive
SGRPHDCPHWRFFRSIKGLI | -0.676 ± 0.48
NCPRWICAILYEYHAVRRRV | 0.713 ± 0.49
SIVKLGVYHDLPA | 0.721 ± 0.66
YGSCGQRKN | 0.519 ± 0.3
DSISNISDPCGFLGQESWVN | 4.83 ± 0.063
DCHEGRTNPRALKCFTEERG | 0.173 ± 1.1
AWESNCIVRFKY | 4.36 ± 0.089
VSLLWYHFGWLLDCFWYRWS | 0.429 ± 0.8
RAQRLP | -0.241 ± 0.55
LNWGSNIQAGVHTSRPWGSY | 0.248 ± 0.43
VHRTEVRLLSQGTRYVSCNS | 2.06 ± 0.3
FRSFRRIILSFYEVNFGSII | inactive

Substance | amyloid nucleation score
YNGTTLMMGDIGSCSFI | -0.787 ± 0.38
HIFCRLRLAGNRLRSCLCNF | -1.16 ± 1.1
GQGDYMRFSDNAGGPYSKLE | 1.73 ± 0.24
SELLGLSIKAIYICCMSQME | -0.9 ± 0.61
NIVLTLSRGF | 2.56 ± 0.1
ILGSFEHSTQGKYSYWGMRG | 4.51 ± 0.066
AKLEVQA | -0.978 ± 0.36
TSQTCLEVSRSCCVGMRKSK | 0.192 ± 1
RRFMYIFYLDYFFKPLLRLN | -0.369 ± 1.1
FFLGANGINALQNRSYIQPG | 0.007 ± 0.79
RYCLTVSKGLRSG | -0.722 ± 0.49
WCVRELLE | -0.077 ± 0.39
LSPLIAAHSTERVYWY | 0.262 ± 0.46
AMYEH | 0.518 ± 0.46
FSGSALGCEMRYCSRVYWQR | 4.46 ± 0.063
LGPGLDLSIINYEWIIF | -0.202 ± 0.79
DINSQEVCSVTELGR | -0.247 ± 0.45
GENSVLRSGNFKYKAWFCGG | -0.342 ± 1
LKLCLRCSNIVLPD | -0.434 ± 0.3
VRKRNVFFSSSFSSQRSGNC | -0.327 ± 0.63
VDYYDIQCL | 0.649 ± 0.36
HRMNGFDLLMLVCKKCIDFC | inactive
